Test results: PMC13184981 (ACS Chemical Biology, 2026)

Target: the molecule itself
Test: mass photometry

B1: Purified recombinant full-length LIMK1 (natural protein)
chain: MRLTLLCCTWREERMGEEGSELPVCASCGQRIYDGQYLQALNADWHADCFRCCDCSASLSHQYYEKDGQLFCKKDYWARYGESCHGCSEQITKGLVMVAGELKYHPECFICLTCGTFIGDGDTYTLVEHSKLYCGHCYYQTVVTPVIEQILPDSPGSHLPHTVTLVSIPASSHGKRGLSVSIDPPHGPPGCGTEHSHTVRVQGVDPGCMSPDVKNSIHVGDRILEINGTPIRNVPLDEIDLLIQETSRLLQLTLEHDPHDTLGHGLGPETSPLSSPAYTPSGEAGSSARQKPVLRSCSIDRSPGAGSLGSPASQRKDLGRSESLRVVCRPHRIFRPSDLIHGEVLGKGCFGQAIKVTHRETGEVMVMKELIRFDEETQRTFLKEVKVMRCLEHPNVLKFIGVLYKDKRLNFITEYIKGGTLRGIIKSMDSQYPWSQRVSFAKDIASGMAYLHSMNIIHRDLNSHNCLVRENKNVVVADFGLARLMVDEKTQPEGLRSLKKPDRKKRYTVVGNPYWMAPEMINGRSYDEKVDVFSFGIVLCEIIGRVNADPDYLPRTMDFGLNVRGFLDRYCPPNCPPSFFPITVRCCDLDPEKRPSFVKLEHWLETLRMHLAGHLPLGPQLEQLDRGFWETYRRGESGLPAHPEVPD
notes: source: insect cells, baculovirus, purified (Ni-NTA, SP Sepharose, TEV cleavage, SEC)
  stoichiometry N: 2
